According to patent US20200268901A1 (Bristol-Myers Squibb, published 2020):
Values joined by “and” are separate entries in the source; they are usually repeats but may differ in a detail not shown here. Equal entries are not always repeated.

Legend:
[1] = molecular target: T1, hCD73-his (full length extracellular domain of human CD73, residues 26-546, C-terminal polyhistidine tag) (human, UniProt P21589 26-546); assay: SEC, 5.5 uM each; peak 1: complexes larger than 4:4
T1 construct: range 26-546; not shown: C-terminal polyhistidine tag
T1 sequence (looked up): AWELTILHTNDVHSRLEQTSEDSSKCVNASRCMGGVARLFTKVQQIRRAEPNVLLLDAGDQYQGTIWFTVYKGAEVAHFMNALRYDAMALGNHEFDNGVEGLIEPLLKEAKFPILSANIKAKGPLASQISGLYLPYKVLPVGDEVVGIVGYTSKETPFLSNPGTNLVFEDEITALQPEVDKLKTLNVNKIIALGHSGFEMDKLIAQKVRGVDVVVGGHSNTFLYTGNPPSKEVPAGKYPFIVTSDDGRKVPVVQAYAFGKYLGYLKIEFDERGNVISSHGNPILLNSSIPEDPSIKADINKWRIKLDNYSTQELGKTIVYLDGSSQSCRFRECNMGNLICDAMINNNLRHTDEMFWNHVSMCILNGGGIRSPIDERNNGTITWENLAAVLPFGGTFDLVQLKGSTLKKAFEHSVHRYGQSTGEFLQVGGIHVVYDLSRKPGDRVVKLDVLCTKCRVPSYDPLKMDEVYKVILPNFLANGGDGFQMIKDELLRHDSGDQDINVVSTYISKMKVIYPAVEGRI
Method: (§1) The oligomeric state of CD73/antibody complexes were examined by size-exclusion chromatography coupled to an in-line multi-angle light scattering detector (SEC-MALS). Isocratic separations were performed on a Shodex PROTEIN KW-803 column connected to an Prominence Shimadzu UFLC in buffer containing 200 mM K₂HPO₄, 150 mM NaCl, pH 6.8, containing 0.02% Na azide (0.1 μm filtered) running at 0.5 mL/min. Samples were injected onto the column using a SIL-20AC Prominence Shimadzu autosampler, and data were obtained from three online detectors connected in series: a Prominence SPD-20AD diode array UV/vis spectrophotometer followed by a Wyatt miniDAWN™ TREOS Multi-Angle Light Scattering Detector then a Wyatt Optilab T-rEX Refractive Index Detector. Data were collected and analyzed using Astra (Wyatt) and Labsolutions (Shimadzu) software.
(§2) CD73.4 antibodies having the heavy chain constant regions set forth in Table 14 were also tested for formation of high molecular weight complexes by SEC-MALS and DLS experiments, as described in Example 3.

[2] = molecular target: T2, human CD73 on Calu6 cells (human, UniProt P21589 27-549); assay: cell-based or functional assay
T2 sequence (looked up): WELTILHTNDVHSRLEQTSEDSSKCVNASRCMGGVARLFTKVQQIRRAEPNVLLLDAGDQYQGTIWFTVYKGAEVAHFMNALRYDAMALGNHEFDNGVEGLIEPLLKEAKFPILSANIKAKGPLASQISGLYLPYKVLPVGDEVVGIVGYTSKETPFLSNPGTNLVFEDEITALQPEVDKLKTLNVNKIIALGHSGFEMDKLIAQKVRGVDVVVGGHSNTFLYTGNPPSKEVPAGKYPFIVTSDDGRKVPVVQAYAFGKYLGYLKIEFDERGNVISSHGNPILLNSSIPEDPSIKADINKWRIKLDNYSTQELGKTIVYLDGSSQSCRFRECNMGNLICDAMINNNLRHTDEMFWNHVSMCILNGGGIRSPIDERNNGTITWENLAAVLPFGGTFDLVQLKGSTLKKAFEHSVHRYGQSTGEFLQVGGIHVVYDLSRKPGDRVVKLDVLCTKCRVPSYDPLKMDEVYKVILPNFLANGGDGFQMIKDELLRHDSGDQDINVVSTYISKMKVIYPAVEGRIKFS

[3] = molecular target: T1, hCD73-his (full length extracellular …); assay: SEC, 5.5 uM each; peak 4: free mAb
Method: as §1, with “Isocratic” for “The oligomeric state of CD73/antibody complexes were examined by size-exclusion chromatography coupled to an in-line multi-angle light scattering detector (SEC-MALS). Isocratic”
as §2

[4] = molecular target: T3, human GITR on cells (activated human T cells; 3A9-hGITR cells) (human, UniProt Q9Y5U5 26-241); assay: cell-based or functional assay
T3 sequence (looked up): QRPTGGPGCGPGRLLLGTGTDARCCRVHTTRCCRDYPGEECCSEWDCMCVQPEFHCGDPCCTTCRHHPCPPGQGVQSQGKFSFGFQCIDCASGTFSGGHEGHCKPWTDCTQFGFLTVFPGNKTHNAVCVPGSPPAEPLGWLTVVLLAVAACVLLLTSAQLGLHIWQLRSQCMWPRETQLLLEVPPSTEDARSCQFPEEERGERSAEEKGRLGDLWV

[5] = molecular target: T1, hCD73-his (full length extracellular …); assay: SEC, 5.5 uM each; peak 2: about 2:2 complexes
Method: as §1, §2

[6] = molecular target: T2, human CD73 on Calu6 cells; assay: cell-based or functional assay; remark: listed apart in the source
[7] = molecular target: T2, human CD73 on Calu6 cells; assay: cell-based or functional assay; remark: listed apart in the source
[8] = molecular target: T4, N-hCD73-his (N-terminal domain of human CD73, residues 26-336) (human, UniProt P21589 26-336); assay: SPR (Biacore T100), mAb captured on protein A, N-hCD73-his analyte
T4 construct: not shown: his tag
T4 sequence (looked up): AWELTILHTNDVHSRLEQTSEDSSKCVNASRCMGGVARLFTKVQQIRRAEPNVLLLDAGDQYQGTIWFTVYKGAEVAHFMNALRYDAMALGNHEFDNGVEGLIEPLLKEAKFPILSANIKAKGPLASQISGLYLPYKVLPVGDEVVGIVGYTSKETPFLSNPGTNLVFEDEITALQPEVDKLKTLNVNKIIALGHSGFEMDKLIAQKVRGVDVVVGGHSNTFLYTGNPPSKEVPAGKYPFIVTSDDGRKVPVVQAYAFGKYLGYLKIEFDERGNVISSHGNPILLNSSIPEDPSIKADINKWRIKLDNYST
Method: The affinity of the antibodies for human CD73 was measured to determine whether the change of the constant region affects them. The affinities were determined by Surface Plasmon Resonance (SPR) as follows. […] For these experiments, protein A (Pierce) was immobilized to a density of 3000-4000 RU on flow cells 1-4 of a CM5 sensor chip (GE Healthcare) using standard ethyl(dimethylaminopropyl) carbodiimide (EDC)/N-hydroxysuccinimide (NHS) chemistry, with ethanolamine blocking, in a running buffer of 0.01 M HEPES pH 7.4, 0.15 M NaCl, 3 mM EDTA, 0.005% v/v tween 20. […] The running buffer for the kinetic experiments was 10 mM sodium phosphate, 130 mM sodium chloride, 0.05% tween 20, pH 7.1. The surfaces were regenerated after each cycle using two 30 s pulses of 10 mM glycine pH 1.5 at a flow rate of 30 μl/min. Sensogram data was double-referenced and then fitted to a 1:1 Langmuir model using Biacore T100 evaluation software v2.0.4, to determine the association rate constant (ka), the dissociation rate constant (kd), and the equilibrium dissociation constant (KD).

B1: CD73.4-IgG2.3-plusTHT (antibody)
heavy: QVQLVESGGGVVQPGRSLRLSCAASGFTFSNYGMHWVRQAPGKGLEWVAVILYDGSNKYYPDSVKGRFTISRDNSKNTLYLQMNSLRAEDTAVYYCARGGSSWYPDSFDIWGQGTMVTVSSASTKGPSVFPLAPCSRSTSESTAALGCLVKDYFPEPVTVSWNSGALTSGVHTFPAVLQSSGLYSLSSVVTVPSSNFGTQTYTCNVDHKPSNTKVDKTVERKSCVETHTCPPCPAPPVAGPSVFLFPPKPKDTLMISRTPEVTCVVVDVSHEDPEVQFNWYVDGVEVHNAKTKPREEQFNSTFRVVSVLTVVHQDWLNGKEYKCKVSNKGLPAPIEKTISKTKGQPREPQVYTLPPSREEMTKNQVSLTCLVKGFYPSDIAVEWESNGQPENNYKTTPPMLDSDGSFFLYSKLTVDKSRWQQGNVFSCSVMHEALHNHYTQKSLSLSPGK
light: not shown
B1 was tested, and the “UV % Peak1 (<12.9 min)” value [1] was 30.6%, the “T1/2 (hr) of CD73 internalization, Calu6 cells” value [2] was 0.355 h and the “T1/2 (hr) of CD73 internalization, NCI-H292 cells” value [2] was 0.293 h. The “Ymax (%) of CD73 internalization, Calu6 cells” value [2] was 81.2%, the “Ymax (%) of CD73 internalization, NCI-H292 cells” value [2] was 91.4% and the “UV % Peak4 (16.7-19.3 min)” value [3] was 33.7%.

B2: anti-GITR-IgG2 (antibody)
heavy: QVQLVESGGGVVQPGRSLRLSCAASGFTFSSYGMHWVRQAPGKGLEWVAVIWYEGSNKYYADSVKGRFTISRDNSKNTLYLQMNSLRAEDTAVYYCARGGSMVRGDYYYGMDVWGQGTTVTVSSASTKGPSVFPLAPCSRSTSESTAALGCLVKDYFPEPVTVSWNSGALTSGVHTFPAVLQSSGLYSLSSVVTVPSSNFGTQTYTCNVDHKPSNTKVDKTVERKCCVECPPCPAPPVAGPSVFLFPPKPKDTLMISRTPEVTCVVVDVSHEDPEVQFNWYVDGVEVHNAKTKPREEQFNSTFRVVSVLTVVHQDWLNGKEYKCKVSNKGLPAPIEKTISKTKGQPREPQVYTLPPSREEMTKNQVSLTCLVKGFYPSDIAVEWESNGQPENNYKTTPPMLDSDGSFFLYSKLTVDKSRWQQGNVFSCSVMHEALHNHYTQKSLSLSPGK
light: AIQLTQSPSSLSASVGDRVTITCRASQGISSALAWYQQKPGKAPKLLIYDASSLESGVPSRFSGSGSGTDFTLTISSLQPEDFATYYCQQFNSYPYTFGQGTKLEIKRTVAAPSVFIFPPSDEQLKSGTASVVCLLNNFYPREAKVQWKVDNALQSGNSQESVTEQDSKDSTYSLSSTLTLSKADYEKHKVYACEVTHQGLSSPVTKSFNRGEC
In the case of B2, the “EC50 (nM), phospho-p65 NFkB signaling, CD4+ T cells” value [4] is reported as 12.8 nM, the “EC50 (nM), phospho-p65 NFkB signaling, CD8+ T cells” value [4] is reported as 9 nM and the “Emax (%), phospho-p65 NFkB signaling, CD4+ T cells” value [4] is reported as 69%. The “Emax (%), phospho-p65 NFkB signaling, CD8+ T cells” value [4] was 85%.

B3: CD73.4-IgG2.3G1-KH (antibody)
heavy: QVQLVESGGGVVQPGRSLRLSCAASGFTFSNYGMHWVRQAPGKGLEWVAVILYDGSNKYYPDSVKGRFTISRDNSKNTLYLQMNSLRAEDTAVYYCARGGSSWYPDSFDIWGQGTMVTVSSASTKGPSVFPLAPCSRSTSESTAALGCLVKDYFPEPVTVSWNSGALTSGVHTFPAVLQSSGLYSLSSVVTVPSSNFGTQTYTCNVDHKPSNTKVDKTVERKSCVECPPCPAPPVAGPSVFLFPPKPKDTLMISRTPEVTCVVVDVSHEDPEVKFNWYVDGVEVHNAKTKPREEQYNSTYRVVSVLTVLHQDWLNGKEYKCKVSNKALPAPIEKTISKAKGQPREPQVYTLPPSREEMTKNQVSLTCLVKGFYPSDIAVEWESNGQPENNYKTTPPVLDSDGSFFLYSKLTVDKSRWQQGNVFSCSVMHEALHNHYTQKSLSLSPGK
light: not shown
For B3, the “UV % Peak2 (12.9-15.1 min)” value [5] was 23.4%, the “UV % Peak1 (<12.9 min)” value [1] was 34.9% and the “T1/2 (hr) of CD73 internalization, Calu6 cells” value [2] was 0.396 h. For the same binder, the “T1/2 (hr) of CD73 internalization, NCI-H292 cells” value [2] was 0.28 h, the “Ymax (%) of CD73 internalization, Calu6 cells” value [2] was 81.6% and the “Ymax (%) of CD73 internalization, NCI-H292 cells” value [2] was 91.6%.

B4: CD73.10-IgG2-C219S-IgG1.1 (antibody)
heavy: QVQLVESGGGVVQPGRSLRLSCAASGFTFSNYGMHWVRQAPGKGLEWVAVIWYDESNKYYPDSVKGRFTISRDNSKNTLYLQMNSLRAEDTAVYYCARGGSSWYPDSFDIWGQGTMVTVSSASTKGPSVFPLAPCSRSTSESTAALGCLVKDYFPEPVTVSWNSGALTSGVHTFPAVLQSSGLYSLSSVVTVPSSNFGTQTYTCNVDHKPSNTKVDKTVERKSCVECPPCPAPPVAGPSVFLFPPKPKDTLMISRTPEVTCVVVDVSHEDPEVKFNWYVDGVEVHNAKTKPREEQYNSTYRVVSVLTVLHQDWLNGKEYKCKVSNKALPSSIEKTISKAKGQPREPQVYTLPPSREEMTKNQVSLTCLVKGFYPSDIAVEWESNGQPENNYKTTPPMLDSDGSFFLYSKLTVDKSRWQQGNVFSCSVMHEALHNHYTQKSLSLSPG
light: not shown
notes: anti-CD73; also called CD73.10-IgG2CS-IgG1.1f
With B4 the “% internalization, Calu6 cells” value [6] was 91%, the “% internalization, H228 cells” value [6] was 92% and the “% internalization, H2030 cells” value [6] was 87%. For the same binder, the “% internalization, HCC15 cells” value [6] was 91%, the “T1/2 min of internalization, Calu6 cells” value [6] was 3.1 min and the “T1/2 min of internalization, H228 cells” value [6] was 9.4 min. For the same binder, the “T1/2 min of internalization, H2030 cells” value [6] was 4.3 min, the “T1/2 min of internalization, HCC15 cells” value [6] was 3 min and the “EC50 (nM) of CD73 internalization, Calu6 cells, 2 h” value [7] was 0.87 nM. For the same binder, the “Ymax of CD73 internalization (% of 100 nM 11F11)” value [7] was 99%, the Kd [8] was 5.7 nM and 6.8 nM and the koff [8] was 0.0014 s⁻¹ and 0.0016 s⁻¹. The kon [8] was 240000 M⁻¹ s⁻¹ and 230000 M⁻¹ s⁻¹.
